Test results from publication PMC5435312, “DNA recognition by an RNA-guided bacterial Argonaute”.

Target: T1, MpAgo D516A (Marinitoga piezophila, UniProt H2J4R4 1-639, D516A)
T1 sequence: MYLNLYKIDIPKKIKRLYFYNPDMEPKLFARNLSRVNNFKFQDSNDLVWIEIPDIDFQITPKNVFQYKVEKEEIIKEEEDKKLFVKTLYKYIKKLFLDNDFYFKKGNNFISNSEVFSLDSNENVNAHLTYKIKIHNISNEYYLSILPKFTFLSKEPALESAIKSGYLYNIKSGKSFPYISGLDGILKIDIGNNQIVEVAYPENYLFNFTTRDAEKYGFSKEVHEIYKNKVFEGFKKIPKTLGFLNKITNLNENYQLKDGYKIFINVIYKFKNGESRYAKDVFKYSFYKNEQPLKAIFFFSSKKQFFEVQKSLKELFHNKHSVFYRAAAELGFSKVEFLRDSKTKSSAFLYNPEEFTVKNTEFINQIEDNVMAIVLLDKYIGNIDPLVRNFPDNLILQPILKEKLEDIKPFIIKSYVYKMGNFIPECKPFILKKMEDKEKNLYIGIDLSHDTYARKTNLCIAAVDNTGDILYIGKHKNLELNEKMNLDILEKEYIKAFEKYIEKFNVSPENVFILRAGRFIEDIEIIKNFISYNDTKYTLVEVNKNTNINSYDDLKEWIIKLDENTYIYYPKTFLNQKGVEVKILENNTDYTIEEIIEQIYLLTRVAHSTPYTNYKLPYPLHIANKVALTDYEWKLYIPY
Assay: X-ray crystallography (3.2 A); 0.1 M MES pH 7.0, 275 mM KI, 27% PEG 4000; guide RNA 1.2x, target equimolar to guide; Crystallization: 0.1 M MES pH 7.0, 275 mM KI, 27% (w/v) PEG 4000, 18 C; protein about 3.5 mg/ml in complex; mismatch guides assayed by cleavage only (no binding read-out)
Conditions: protein: recombinant; tags: His10-Asn10-MBP tag removed by PreScission protease; 21 nt guide and 21 nt target, fully complementary; in the complex guide nt 1 and target C21 are unpaired, 20 bp modeled

B1: 21 nt RNA guide / 21 nt DNA target (DNA:RNA)
RNA: GGUACAACCUACUACCUCAUU
DNA: AATGAGGTAGTAGGTTGTACC
modifications: 5'-OH RNA guide; 5'-phosphate DNA target
  binding result: binds
